Assay results as given in PMC6615629, “Hsp70-nucleotide exchange factor (NEF) Fes1 has non-NEF roles in degradation of gluconeogenic enzymes and cell wall integrity” (PLoS Genetics, 2019).

Legend:
His6-Fbp1ΔP2 = target: T1, His6-Fbp1ΔP2 (yeast (S. cerevisiae), UniProt P09201 1-348, ΔP2); assay: pull-down; His6-Fbp1 (wild type or mutant) pulled down on Talon metal affinity resin; reactions with two or all three proteins; 6 μg each of His6-Fbp1 (1.6 μM), Hsp70 (0.9 μM) and GST-Fes1 (1.09 μM), with or without ATP, ADP or AMP (2.5 mM); 50 mM Tris-HCl pH 7.5, 150 mM NaCl, 2% glycerol, 5 mM MgCl2; 30 min at 4°C; washed with 5 mM imidazole, eluted with 250 mM imidazole; stained SDS-PAGE gels, bands quantified …; settings: both partners purified
T1 construct: Fbp1, yeast gluconeogenic enzyme, proline 2 deleted; the initiator methionine is counted as residue 1; also called Fbp1P2Δ; source: E. coli expression, purified; not shown: His6, N-terminal, kept
T1 sequence (looked up): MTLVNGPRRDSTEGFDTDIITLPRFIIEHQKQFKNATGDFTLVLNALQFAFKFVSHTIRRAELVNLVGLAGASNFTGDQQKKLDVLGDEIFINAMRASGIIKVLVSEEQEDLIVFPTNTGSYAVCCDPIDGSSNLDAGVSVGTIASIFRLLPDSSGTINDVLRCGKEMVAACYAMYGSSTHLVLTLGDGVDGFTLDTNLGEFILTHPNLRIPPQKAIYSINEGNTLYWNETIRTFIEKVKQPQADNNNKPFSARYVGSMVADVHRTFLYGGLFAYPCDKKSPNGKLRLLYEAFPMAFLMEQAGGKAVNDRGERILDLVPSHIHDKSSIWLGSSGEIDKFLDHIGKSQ

His6-Fbp1 P2A = target: T2, His6-Fbp1 P2A (yeast (S. cerevisiae), UniProt P09201 1-348, P2A); assay: as above; settings: both partners purified
T2 construct: Fbp1, yeast gluconeogenic enzyme, P2A; the initiator methionine is counted as residue 1; source: E. coli expression, purified; not shown: His6, N-terminal, kept
T2 sequence (looked up): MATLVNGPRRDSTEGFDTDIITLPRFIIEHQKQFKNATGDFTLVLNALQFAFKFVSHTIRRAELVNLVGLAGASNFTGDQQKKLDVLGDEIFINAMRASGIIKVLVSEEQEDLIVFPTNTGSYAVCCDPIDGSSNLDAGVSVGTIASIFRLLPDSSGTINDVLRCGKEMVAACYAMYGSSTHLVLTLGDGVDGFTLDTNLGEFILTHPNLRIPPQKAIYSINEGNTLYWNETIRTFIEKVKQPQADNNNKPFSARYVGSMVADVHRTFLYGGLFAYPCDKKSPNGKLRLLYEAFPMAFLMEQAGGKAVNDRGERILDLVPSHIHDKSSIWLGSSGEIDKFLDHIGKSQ

binding result (His6-Fbp1ΔP2): binds | binding result (His6-Fbp1 P2A): binds
B1: GST-Fes1 (natural protein, yeast (S. cerevisiae), UniProt P38260 1-290, looked up)
chain: MEKLLQWSIANSQGDKEAMARAGQPDPKLLQQLFGGGGPDDPTLMKESMAVIMNPEVDLETKLVAFDNFEMLIENLDNANNIENLKLWEPLLDVLVQTKDEELRAAALSIIGTAVQNNLDSQNNFMKYDNGLRSLIEIASDKTKPLDVRTKAFYALSNLIRNHKDISEKFFKLNGLDCIAPVLSDNTAKPKLKMRAIALLTAYLSSVKIDENIISVLRKDGVIESTIECLSDESNLNIIDRVLSFLSHLISSGIKFNEQELHKLNEGYKHIEPLKDRLNEDDYLAVKYVL
notes: Fes1, yeast Hsp70 nucleotide exchange factor; also called wild type GST-Fes1; source: E. coli expression, purified as described [15]; not shown: GST, N-terminal, kept
